In patent US20100021479A1 (Bristol-Myers Squibb, published 2010):

Assays:
[1] = molecular target: T1, cynomolgus CD30 on PHA, Con A and rIL-2 activated cynomolgus peripheral blood mononuclear cells (cynomolgus, UniProt A0A2K5VW07 29-603); experiment: Scatchard analysis, 125I-labelled antibody on PHA/Con A/rIL-2-activated cynomolgus peripheral blood mononuclear cells, 4 °C
T1 construct: whole, on cells
T1 sequence: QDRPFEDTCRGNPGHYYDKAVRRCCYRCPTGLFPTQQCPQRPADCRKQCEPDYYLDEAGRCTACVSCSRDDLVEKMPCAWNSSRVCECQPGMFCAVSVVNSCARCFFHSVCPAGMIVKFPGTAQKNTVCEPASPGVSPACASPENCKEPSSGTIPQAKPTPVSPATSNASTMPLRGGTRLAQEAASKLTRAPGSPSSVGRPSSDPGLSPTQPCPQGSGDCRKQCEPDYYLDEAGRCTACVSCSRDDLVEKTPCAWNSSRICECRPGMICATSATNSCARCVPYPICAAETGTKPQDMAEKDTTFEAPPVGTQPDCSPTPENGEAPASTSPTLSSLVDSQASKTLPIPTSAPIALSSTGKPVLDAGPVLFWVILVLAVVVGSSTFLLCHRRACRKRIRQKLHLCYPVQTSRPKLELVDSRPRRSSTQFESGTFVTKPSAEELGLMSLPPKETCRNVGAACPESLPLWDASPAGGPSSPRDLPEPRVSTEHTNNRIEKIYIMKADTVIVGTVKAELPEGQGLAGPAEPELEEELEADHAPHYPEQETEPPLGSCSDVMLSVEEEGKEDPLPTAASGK
Experimental: (§1) Human or cynomolgus peripheral blood cells were stimulated with 2 μg/ml PHA, 10 μg/ml Con A, and 50 U/ml rIL-2 and cultured in RPMI1640 media containing 10% fetal bovine serum (FBS) at 1×10⁶ cells/ml density for 3 days. On the day of the study, the cells were washed and adjusted to 2×10⁷ cells/m in binding buffer (RPMI1640+10% FBS). As a control, CD30 positive L540 cells (adjusted to 4-8×10⁶ cells/ml) were used in these studies since they express high levels of the antigen. The cells were placed on ice until the initiation of the experiment. Millipore glass fiber filter plates (MAFBN0B50) were coated with 1% nonfat dry milk in water and stored a 4° C. overnight. The plates were washed three times with 0.2 ml of binding buffer. Fifty microliters of buffer alone was added to the maximum binding wells (total binding). Twenty-five microliters of buffer alone was added to the control wells. Varying concentration of ¹²⁵I-anti-CD30 antibody was added to all wells in a volume of 25 μL. Varying concentrations of unlabeled antibody at 300-400 fold excess were added in a volume of 25 μl to control wells (non-specific binding) and 25 μl of CD30 positive L540 cells or stimulated human or cynomolgus peripheral blood cells in binding buffer were added to all wells. The plates were incubated for 2 hours at 200 RPM on a shaker at 4° C. […] The filters were removed and counted in a gamma counter. […]

human CD30 [2] = molecular target: T2, human CD30 (human, UniProt P28908 19-595); experiment: Scatchard analysis, 125I-labelled antibody on PHA/Con A/rIL-2-activated human peripheral blood cells, 4 °C
T2 construct: whole, on cells; The target was always presented on cells; also called CD30 antigen
T2 sequence (looked up): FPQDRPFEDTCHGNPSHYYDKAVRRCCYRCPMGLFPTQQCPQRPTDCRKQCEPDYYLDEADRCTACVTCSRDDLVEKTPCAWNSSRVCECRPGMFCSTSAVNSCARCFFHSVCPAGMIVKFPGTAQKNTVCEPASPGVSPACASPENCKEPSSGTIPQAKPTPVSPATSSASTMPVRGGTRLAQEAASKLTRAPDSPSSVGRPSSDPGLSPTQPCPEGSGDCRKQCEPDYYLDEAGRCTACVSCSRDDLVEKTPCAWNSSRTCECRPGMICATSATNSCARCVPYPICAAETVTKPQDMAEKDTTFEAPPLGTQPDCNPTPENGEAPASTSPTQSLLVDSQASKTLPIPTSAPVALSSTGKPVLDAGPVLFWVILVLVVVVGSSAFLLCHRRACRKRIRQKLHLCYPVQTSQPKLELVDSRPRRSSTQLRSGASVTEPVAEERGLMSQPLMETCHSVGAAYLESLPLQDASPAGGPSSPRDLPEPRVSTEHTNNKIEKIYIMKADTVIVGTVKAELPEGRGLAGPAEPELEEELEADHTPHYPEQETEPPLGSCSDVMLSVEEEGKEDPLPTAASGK
Experimental: as §1

human CD30 [3] = molecular target: T2, human CD30; experiment: Scatchard analysis, 125I-labelled antibody on CD30 positive L540 cells, 4 °C
Experimental: as §1

human CD30 [4] = molecular target: T2, human CD30; experiment: cell-based or functional assay

B1: fucosylated 5F11 anti-CD30 fully human monoclonal antibody (expressed in CHO DG44 cells) (antibody, IgG1, V domains shown)
VH: QVQLQQWGAGLLKPSETLSLTCAVYGGSFSAYYWSWIRQPPGKGLEWIGDINHGGGTNYNPSLKSRVTISVDTSKNQFSLKLNSVTAADTAVYYCASLTAYWGQGSLVTVSS
VL: DIQMTQSPTSLSASVGDRVTITCRASQGISSWLTWYQQKPEKAPKSLIYAASSLQSGVPSRFSGSGSGTDFTLTISSLQPEDFATYYCQQYDSYPITFGQGTRLEIK
notes: It was made in CHO DG44 (FUT8+/+) cells, so the carbohydrate contains fucose; also called fuc-5F11; Anti-CD30 + fucose
- Kd [1]: 0.47 nM
- Kd (human CD30 [2]): 1.08 nM
- Kd (human CD30 [3]): 1.37 nM
- EC50 of ADCC, Karpas cells (human CD30 [4]): 0.25 µg/mL
- EC50 of ADCC, L428 cells (human CD30 [4]): 0.1 µg/mL
- EC50 of ADCC, L540 cells (human CD30 [4]): 0.042 µg/mL
- EC50 of ADCC, L1236 cells (human CD30 [4]): 1.22 µg/mL

B2: defucosylated 5F11 anti-CD30 fully human monoclonal antibody (expressed in FUT8-/- Ms704 cells) (antibody, V domains shown)
VH: B1 VH
VL: B1 VL
- % Lysis ratio fucose-:fucose+, ADCC, Karpas cells (human CD30 [4]): 2.63 fold
- % Lysis ratio fucose-:fucose+, ADCC, L428 cells (human CD30 [4]): 2.15 fold
- % Lysis ratio fucose-:fucose+, ADCC, L540 cells (human CD30 [4]): 1.61 fold
- % Lysis ratio fucose-:fucose+, ADCC, L1236 cells (human CD30 [4]): 3.25 fold
- EC50 ratio fucose+:fucose-, ADCC, Karpas cells (human CD30 [4]): 7.8 fold
- EC50 ratio fucose+:fucose-, ADCC, L428 cells (human CD30 [4]): 11.1 fold
- EC50 ratio fucose+:fucose-, ADCC, L540 cells (human CD30 [4]): 4.7 fold
- EC50 ratio fucose+:fucose-, ADCC, L1236 cells (human CD30 [4]): 27.1 fold
